Results on one molecule are retold here after patent publication US20180292409A1 (REGENTS OF THE UNIVERSITY OF MINNESOTA, published 2018).

In the test the target is T1, progesterone receptor (PR) (human, UniProt P06401 1-933, limits assumed).
T1 construct: also called total PR; PR-A
T1 sequence (looked up): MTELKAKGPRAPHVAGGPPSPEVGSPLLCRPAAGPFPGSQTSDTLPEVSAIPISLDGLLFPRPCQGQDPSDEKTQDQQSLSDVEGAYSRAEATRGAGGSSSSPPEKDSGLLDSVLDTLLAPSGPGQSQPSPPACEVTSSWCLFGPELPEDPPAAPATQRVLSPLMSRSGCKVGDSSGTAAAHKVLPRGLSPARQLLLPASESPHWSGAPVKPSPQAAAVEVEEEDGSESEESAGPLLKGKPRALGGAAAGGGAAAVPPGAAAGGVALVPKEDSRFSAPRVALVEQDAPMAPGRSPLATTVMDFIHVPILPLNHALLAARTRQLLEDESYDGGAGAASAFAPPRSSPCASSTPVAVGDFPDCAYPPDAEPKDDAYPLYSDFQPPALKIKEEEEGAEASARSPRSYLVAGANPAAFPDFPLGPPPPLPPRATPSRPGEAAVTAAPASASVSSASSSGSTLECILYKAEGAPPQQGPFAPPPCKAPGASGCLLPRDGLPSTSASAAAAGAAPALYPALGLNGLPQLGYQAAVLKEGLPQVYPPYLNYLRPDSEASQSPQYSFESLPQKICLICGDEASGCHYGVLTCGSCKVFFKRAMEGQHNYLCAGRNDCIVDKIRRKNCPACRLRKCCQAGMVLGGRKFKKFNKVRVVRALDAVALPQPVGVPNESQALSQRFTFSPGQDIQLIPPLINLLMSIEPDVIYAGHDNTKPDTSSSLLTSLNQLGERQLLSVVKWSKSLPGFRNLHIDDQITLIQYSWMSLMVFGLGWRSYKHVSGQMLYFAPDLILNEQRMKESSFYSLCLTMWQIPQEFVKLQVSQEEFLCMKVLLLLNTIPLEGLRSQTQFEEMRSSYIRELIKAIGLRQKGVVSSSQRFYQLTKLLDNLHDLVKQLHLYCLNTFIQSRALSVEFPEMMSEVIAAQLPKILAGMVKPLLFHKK
Put plainly: co-immunoprecipitation from breast cancer cell whole cell lysates.

B1: RUNX2 (other, UniProt Q13950 1-521, looked up)
chain: MASNSLFSTVTPCQQNFFWDPSTSRRFSPPSSSLQPGKMSDVSPVVAAQQQQQQQQQQQQQQQQQQQQQQQEAAAAAAAAAAAAAAAAAVPRLRPPHDNRTMVEIIADHPAELVRTDSPNFLCSVLPSHWRCNKTLPVAFKVVALGEVPDGTVVTVMAGNDENYSAELRNASAVMKNQVARFNDLRFVGRSGRGKSFTLTITVFTNPPQVATYHRAIKVTVDGPREPRRHRQKLDDSKPSLFSDRLSDLGRIPHPSMRVGVPPQNPRPSLNSAPSPFNPQGQSQITDPRQAQSSPPWSYDQSYPSYLSQMTSPSIHSTTPLSSTRGTGLPAITDVPRRISDDDTATSDFCLWPSTLSKKSQAGASELGPFSDPRQFPSISSLTESRFSNPRMHYPATFTYTPPVTSGMSLGMSATTHYHTYLPPPYPGSSQSQSGPFQTSSTPYLYYGTSSGSYQFPMVPGGDRSPSRMLPPCTTTSNGSTLLNPNLPNQNDGVDADGSHSSSPTVLNSSGRMDESVWRPY
notes: also called runt-related transcription factor 2
Take B1: the binding result is given as “no binding”.
